The results in this text go back to US5670316.

The series addresses RecA (UniProt P0A7G6). Briefly: pulldown.

RecA, sequence (P0A7G6 2-353): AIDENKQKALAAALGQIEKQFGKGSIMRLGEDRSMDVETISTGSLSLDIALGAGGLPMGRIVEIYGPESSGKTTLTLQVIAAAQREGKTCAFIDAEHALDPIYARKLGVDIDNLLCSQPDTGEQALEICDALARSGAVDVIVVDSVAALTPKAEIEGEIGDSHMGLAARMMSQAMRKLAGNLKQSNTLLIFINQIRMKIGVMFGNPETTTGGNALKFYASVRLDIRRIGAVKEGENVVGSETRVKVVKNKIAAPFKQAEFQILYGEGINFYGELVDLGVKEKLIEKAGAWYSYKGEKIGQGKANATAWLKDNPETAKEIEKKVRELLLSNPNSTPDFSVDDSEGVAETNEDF

For the substance “lambda 1000-mer (6631-7630) nick-translated probe”, the activity (bio-14-dATP incorporated, capture of 32P lambda DNA target, 3.7% without RecA, ATPgammaS, Mg acetate) was determined as 45.9%. For phiX174 RFI nick-translated probe, the activity (capture of 32P lambda target with heterologous non-biotinylated probe, 3.1% without RecA (background)) worked out at 3.6%.
